Source: patent US6713273B2, “High expression and production of high specific activity recombinant S-adenosyl homocysteinase (SAHH) and improved assays for S-adenosylmethionine (SAM)” (priority 2000, dated 2004)

Assays:
[1] = SAHH activity measurement (SAH hydrolysis coupled to rHCYase, DBPDA readout); format: biochemical
Method: Assay buffer: 20 mM potassium phosphate, pH 8.0, 1 mM DTT, and 1 mM EDTA.
2 mM S-adenosyl-L-homocysteine (SAH)
L-homocysteine (various concentrations)
40 mM DBPDA, dissolved in 6 M HCl
40 mM potassium ferricyanide
Mix well and incubate at 37° C. for 10 min. and read absorbance at 675 nm or fluorescence at EX665 nm/EM690 nm. 1 unit is defined as 1 μmole of S-adenosylhomocysteine hydrolated in 1 min. at 37° C. in the presence of excess rHCYase.

[2] = Stability study of SAHH / His•SAHH; format: physicochemical; conditions: 45° for three days; FIGS. 2 and 5
Text: FIG. 2 contains the results of a stability study of SAHH.
FIG. 5 contains the results of a stability study of His•SAHH.
The SAHH enzyme of the invention has favorable properties. For instance, the SAHH has a high specific activity of at least […]. Further, the cloned SAHH of the invention provides a high expression of 20% of total cell protein. Moreover, SAHH produced according to the method of the invention has high stability as illustrated in the attached FIGS. 2 and 5.
The enzyme was formulated as follows: 20 mM potassium phosphate buffer, pH 7.6, 100 mM sodium chloride, 30% glycerol, 1 mM DTT, 1 mM NAD, and 1 mM EDTA.

B1: SAHH: Recombinant T. vaginalis S-adenosyl homocysteinase encoded by SEQ ID NO:1 (amino acid SEQ ID NO:7), expressed in E. coli (protein, listed as Homo sapiens)
chain: MACKSPTGAPFEYRIADINLHVLGRKELTLAEKEMPGLMVLRERYSASKPLKGVRISGSLHMTVQTAVLIETLTALGADVRWASCNIFSTQDTAAAAIVVGPTGTPEKPAGIPVFAWKGETLPEYWENTYRALTWPDGQGPQQVVDDGGDATLLISKGFEFETAGAVPEPTEADNLEYRCVLATLKQVFNQDKNHWHTVAAGMNGVSEETTTGVHRLYQLEKEGKLLFPAINVNDAVTKSKFDNIYGCRHSLIDGINRASDVMIGGKTALVMGYGDVGKGCAQSLRGQGARVIITELDPICALQAAMEGYQVRRIEEVVKDVDIFVTCTGNCDIISVDMMAQMKDKAIVGNIGHFDNEIDTDGLMKYPGIKHIPIKPEYDMWEFPDGHAILLLAEGRLLNLGCATGHPSFVMSMSFTNQTLAQLDLYEKRGNLEKKVYTLPKHLDEEVARLHLGSLDVHLTKLTQKQADYINVPVEGPYKSDAYRY
**Q.** What does the source list for B1?
**A.** specific activity ([1]; general statement on the SAHH of the invention): at least 1.5 U/ml; specific activity ([1]; purified enzyme, 1 unit = 1 μmole SAH hydrolated in 1 min at 37° C. with excess rHCYase): 1.64 units/mg protein; stability (activity loss) [2]: without activity loss
